In patent publication US20110130541A1:

For “BY-kinase A1B2 from Staphylococcus aureus”, the Radioactivity incorporated in A1B2 (cpm); 50 pmole BYK001, 50 pmole A1B2, incubation 0.5 min (BYK001) was 29200 cpm, the Radioactivity incorporated in A1B2 (cpm); 50 pmole BYK001, 50 pmole A1B2, incubation 1 min (BYK001) was 71700 cpm and the Radioactivity incorporated in A1B2 (cpm); 50 pmole BYK001, 50 pmole A1B2, incubation 2 min (BYK001) was 133000 cpm. The Radioactivity incorporated in A1B2 (cpm); 50 pmole BYK001, 50 pmole A1B2, incubation 5 min (BYK001) was 326000 cpm, the Radioactivity incorporated in A1B2 (cpm); 500 pmole BYK001, 50 pmole A1B2, incubation 0.5 min (BYK001) was 30700 cpm and the Radioactivity incorporated in A1B2 (cpm); 500 pmole BYK001, 50 pmole A1B2, incubation 1 min (BYK001) was 72500 cpm. For the same substance, the Radioactivity incorporated in A1B2 (cpm); 500 pmole BYK001, 50 pmole A1B2, incubation 2 min (BYK001) was 134000 cpm, the Radioactivity incorporated in A1B2 (cpm); 500 pmole BYK001, 50 pmole A1B2, incubation 5 min (BYK001) was 325000 cpm and the Radioactivity incorporated in A1B2 (cpm); 5000 pmole BYK001, 50 pmole A1B2, incubation 0.5 min (BYK001) was 29900 cpm. The Radioactivity incorporated in A1B2 (cpm); 5000 pmole BYK001, 50 pmole A1B2, incubation 1 min (BYK001) was 72500 cpm, the Radioactivity incorporated in A1B2 (cpm); 5000 pmole BYK001, 50 pmole A1B2, incubation 2 min (BYK001) was 141000 cpm and the Radioactivity incorporated in A1B2 (cpm); 5000 pmole BYK001, 50 pmole A1B2, incubation 5 min (BYK001) was 324000 cpm. The Radioactivity incorporated in CapO (cpm); 50 pmole BYK001, 50 pmol A1B2, 50 pmole CapO, incubation 0.5 min (BYK001) was 3560 cpm, the Radioactivity incorporated in CapO (cpm); 50 pmole BYK001, 50 pmol A1B2, 50 pmole CapO, incubation 1 min (BYK001) was 6390 cpm and the Radioactivity incorporated in CapO (cpm); 50 pmole BYK001, 50 pmol A1B2, 50 pmole CapO, incubation 2 min (BYK001) was 15500 cpm. It also gave a Radioactivity incorporated in CapO (cpm); 50 pmole BYK001, 50 pmol A1B2, 50 pmole CapO, incubation 5 min (BYK001) of 31900 cpm, a Radioactivity incorporated in CapO (cpm); 500 pmole BYK001, 50 pmol A1B2, 50 pmole CapO, incubation 0.5 min (BYK001) of 3500 cpm and a Radioactivity incorporated in CapO (cpm); 500 pmole BYK001, 50 pmol A1B2, 50 pmole CapO, incubation 1 min (BYK001) of 6300 cpm. It also gave a Radioactivity incorporated in CapO (cpm); 500 pmole BYK001, 50 pmol A1B2, 50 pmole CapO, incubation 2 min (BYK001) of 15500 cpm, a Radioactivity incorporated in CapO (cpm); 500 pmole BYK001, 50 pmol A1B2, 50 pmole CapO, incubation 5 min (BYK001) of 31300 cpm and a Radioactivity incorporated in CapO (cpm); 5000 pmole BYK001, 50 pmol A1B2, 50 pmole CapO, incubation 0.5 min (BYK001) of 3510 cpm. For the same substance, the Radioactivity incorporated in CapO (cpm); 5000 pmole BYK001, 50 pmol A1B2, 50 pmole CapO, incubation 1 min (BYK001) was 6320 cpm, the Radioactivity incorporated in CapO (cpm); 5000 pmole BYK001, 50 pmol A1B2, 50 pmole CapO, incubation 2 min (BYK001) was 15500 cpm and the Radioactivity incorporated in CapO (cpm); 5000 pmole BYK001, 50 pmol A1B2, 50 pmole CapO, incubation 5 min (BYK001) was 31000 cpm. For the same substance, the Radioactivity incorporated in CapO (cpm); 50 pmol A1B2, 50 pmole CapO, no BYK001, incubation 0.5 min (CapO) was 3950 cpm, the Radioactivity incorporated in CapO (cpm); 50 pmol A1B2, 50 pmole CapO, no BYK001, incubation 1 min (CapO) was 7040 cpm and the Radioactivity incorporated in CapO (cpm); 50 pmol A1B2, 50 pmole CapO, no BYK001, incubation 2 min (CapO) was 17400 cpm. It also gave a Radioactivity incorporated in CapO (cpm); 50 pmol A1B2, 50 pmole CapO, no BYK001, incubation 5 min (CapO) of 34700 cpm.
